The results in this text go back to PMC4321732 (Structure (London, England : 1993), 2015).

*1 amine or outer side, *2 acyl side, *3 side chain or, on linkers, in order; H or OH if unused. Where no end group is shown, it is not given here. [ ]: non-standard residue; d: D form. KCme2 = N-dimethylated aminoethylcysteine, CN(C)CCSC[C@H](N[*:1])C(=O)[*:2]; Me2 = dimethyl group on the Lys side-chain amine

The target of assay [1] is T1, tandem Tudor domain (TTD) of human 53BP1 (human, UniProt Q12888 1484-1603). The assay is described as follows: NMR titration.
Assay [2] deals with T1, tandem Tudor domain (TTD) of human 53BP1. The assay is described as follows: solution NMR structure.

T1 sequence (Q12888 1484-1603): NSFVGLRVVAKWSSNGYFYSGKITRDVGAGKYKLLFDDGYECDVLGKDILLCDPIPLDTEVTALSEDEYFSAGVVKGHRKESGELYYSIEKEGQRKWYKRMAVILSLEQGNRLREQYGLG

As to STSRHKK(Me2)LMFKT (peptide, UniProt P04637 376-387, looked up) [p53K382me2 peptide (residues S376-T387 of p53)], in assay [1], the binding result is listed as “binds”. As to SSHLKSKKGQSTSRHKKLMFK (peptide, UniProt P04637 366-386, looked up, dimethyllysine at 370; dimethyllysine at 382) [p53K370me2K382me2 peptide (residues S366-K386)], the binding result in assay [1] is “binds”. As to RAHSSHLK(Me2)SKKGQST (peptide, UniProt P04637 363-377, looked up) [p53K370me2 peptide (residues R363-T377 of p53)], in assay [2], the binding result was “binds”. Regarding GHMRAHSSHLCSKKGQST (not fully specified (residue 11)) [p53KC370me2 peptide (recombinant, dimethyllysine analogue at 370)], the binding result in assay [1] is on record as “binds”. On the same count and under the same terms, the result for GHMRAHSSGLCSKKGQST (not fully specified (residue 11)) [p53H368GKC370me2 peptide] reads “binds”; that for GHMRAGSSHL[KCme2]SKKGQST [p53H365GKC370me2 peptide], “binds”. Still for that read-out and setting: to GHMRAHSSHGCSKKGQST (not fully specified (residue 11)) [p53L369GKC370me2 peptide] belongs “binds”; to GHMRAHSSHLCSGKGQST (not fully specified (residue 11)) [p53KC370me2K372G peptide], “binds”.

Turning to GHMRAHSSHLCSKGGQST (not fully specified (residue 11)) [p53KC370me2K373G peptide], the binding result in assay [1] is reported as “binds”.

Regarding GHMSTSRHKCLMFKT (not fully specified (residue 10)) [p53KC382me2 peptide (recombinant, dimethyllysine analogue at 382)], the binding result in assay [1] is recorded as “binds”. Still for that read-out and setting: the result for GHMSTSRHGCLMFKT (not fully specified (residue 10)) [p53K381GKC382me2 peptide] reads “binds”; that for GHMSTSRHKCGMFKT (not fully specified (residue 10)) [p53KC382me2L383G peptide], “binds”; that for GHMSTSRHKCLMGKT (not fully specified (residue 10)) [p53KC382me2F385G peptide], “binds”.

As to GHMSTSRGKCLMFKT (not fully specified (residue 10)) [p53H380GKC382me2 peptide], in assay [1], the binding result was “binds”. The same measure, in the same setting: the result for GHMSTSGHKCLMFKT (not fully specified (residue 10)) [p53R379GKC382me2 peptide] reads “binds”.
